Data from patent US20240117018A1.

How the values were obtained:
Assay in all cases: cell-based or functional assay
[1] = molecular target: Env of HIV-1 pseudovirus 3365.v2.c2 (HIV-1)
[2] = molecular target: HIV-1 Env pseudovirus CNE8 (HIV-1)
[3] = molecular target: Q842.d12 Env pseudovirus (HIV-1)
[4] = molecular target: AC10.0.29 Env pseudovirus (HIV-1)
[5] = molecular target: 7030102001E5(Rev-) Env pseudovirus (HIV-1)
[6] = molecular target: 191955_A11 Env pseudovirus (HIV-1)
[7] = molecular target: Ce1086_B2 Env pseudovirus (HIV-1)
[8] = molecular target: WITO4160.33 Env pseudovirus (HIV-1)
[9] = molecular target: THRO4156.18 Env pseudovirus (HIV-1)
[10] = molecular target: 1054_07_TC4_1499 Env pseudovirus (HIV-1)
[11] = molecular target: Du422.1 Env pseudovirus (HIV-1)
[12] = molecular target: Du172.17 Env pseudovirus (HIV-1)
[13] = molecular target: Ce2060_G9 Env pseudovirus (HIV-1)
[14] = molecular target: 62357_14_D3_4589 Env pseudovirus (HIV-1)
[15] = molecular target: 928-28 Env pseudovirus (HIV-1)
[16] = molecular target: 6240_08_TA5_4622 Env pseudovirus (HIV-1)
[17] = molecular target: CAAN5342.A2 Env pseudovirus (HIV-1)
[18] = molecular target: 246F C1G Env pseudovirus (HIV-1)
[19] = molecular target: ZM197M.PB7 Env pseudovirus (HIV-1)
[20] = molecular target: Ce704809221_1B3 Env pseudovirus (HIV-1)
[21] = molecular target: WEAU_d15_410_787 Env pseudovirus (HIV-1)
[22] = molecular target: MS208.A1 Env pseudovirus (HIV-1)
[23] = molecular target: CNE20 Env pseudovirus (HIV-1)
[24] = molecular target: ZM53M.PB12 Env pseudovirus (HIV-1)
[25] = molecular target: 249M B10 Env pseudovirus (HIV-1)
[26] = molecular target: TRO.11 Env pseudovirus (HIV-1)
[27] = molecular target: 263-8 Env pseudovirus (HIV-1)
[28] = molecular target: Ce1176_A3 Env pseudovirus (HIV-1)
[29] = molecular target: BF1266.431a Env pseudovirus (HIV-1)
[30] = molecular target: Q461.e2 Env pseudovirus (HIV-1)
[31] = molecular target: T257-31 Env pseudovirus (HIV-1)
[32] = molecular target: Ce0393_C3 Env pseudovirus (HIV-1)
[33] = molecular target: Du156.12 Env pseudovirus (HIV-1)
[34] = molecular target: CAP210.2.00.E8 Env pseudovirus (HIV-1)
[35] = molecular target: Ce703010054_2A2 Env pseudovirus (HIV-1)
[36] = molecular target: HIV-16055-2.3 Env pseudovirus (HIV-1)
[37] = molecular target: ZM249M.PL1 Env pseudovirus (HIV-1)
[38] = molecular target: 9004SS_A3_4 Env pseudovirus (HIV-1)
[39] = molecular target: ZM233M.PB6 Env pseudovirus (HIV-1)
[40] = molecular target: CNE21 Env pseudovirus (HIV-1)
[41] = molecular target: SC05_8C11_2344 Env pseudovirus (HIV-1)
[42] = molecular target: SC422661.8 Env pseudovirus (HIV-1)
[43] = molecular target: HIV-1 Env pseudovirus 3415.v1.c1 (HIV-1)
[44] = molecular target: HIV-1 Env pseudovirus 928-28 (HIV-1)

Substance: 10-1074 (antibody)
- IC50 [1]: 0.131 µg/mL
- IC80 [1]: 0.45 µg/mL

Substance: VRC07 (antibody)
- IC50 (Titer in TZM.bl cells) [2]: 0.45 µg/mL
- IC80 (Titer in TZM.bl cells) [2]: 1.56 µg/mL

Substance: PGT121 (antibody)
- IC50 [3]: 0.005 µg/mL
- IC50 [4]: 0.024 µg/mL
- IC80 [4]: 0.073 µg/mL
- IC50 [5]: 0.009 µg/mL
- IC80 [5]: 0.027 µg/mL
- IC50 [6]: > 50 µg/mL
- IC80 [6]: > 50 µg/mL
- IC50 [7]: < 0.001 µg/mL
- IC80 [7]: < 0.001 µg/mL
- IC50 [8]: 0.334 µg/mL
- IC80 [8]: 2.35 µg/mL
- IC50 [9]: > 50 µg/mL
- IC80 [9]: > 50 µg/mL
- IC50 [10]: 0.064 µg/mL
- IC80 [10]: 0.304 µg/mL
- IC50 [11]: 0.039 µg/mL
- IC80 [11]: 0.143 µg/mL
- IC50 [12]: 0.033 µg/mL
- IC80 [12]: 0.257 µg/mL
- IC50 [13]: > 50 µg/mL
- IC80 [13]: > 50 µg/mL
- IC50 [14]: 2.6 µg/mL
- IC80 [14]: > 50 µg/mL
- IC50 [15]: 44.2 µg/mL
- IC80 [15]: > 50 µg/mL
- IC50 [16]: 0.033 µg/mL
- IC80 [16]: 0.127 µg/mL
- IC50 [17]: 0.007 µg/mL
- IC80 [17]: 0.023 µg/mL
- IC50 [18]: 0.041 µg/mL
- IC80 [18]: 0.14 µg/mL
- IC50 [19]: > 50 µg/mL
- IC80 [19]: > 50 µg/mL
- IC50 [20]: 0.025 µg/mL
- IC80 [20]: 0.126 µg/mL
- IC50 [21]: 0.026 µg/mL
- IC80 [21]: 0.077 µg/mL
- IC50 [22]: > 50 µg/mL
- IC80 [22]: > 50 µg/mL
- IC50 [23]: < 0.001 µg/mL
- IC80 [23]: 0.002 µg/mL
- IC50 [24]: < 0.001 µg/mL
- IC80 [24]: 0.004 µg/mL
- IC50 [25]: > 50 µg/mL
- IC80 [25]: > 50 µg/mL
- IC50 [26]: 0.005 µg/mL
- IC80 [26]: 0.025 µg/mL
- IC50 [27]: 0.648 µg/mL
- IC80 [27]: 3.96 µg/mL
- IC50 [28]: 0.013 µg/mL
- IC80 [28]: 0.035 µg/mL
- IC50 [29]: > 50 µg/mL
- IC80 [29]: > 50 µg/mL
- IC50 [30]: > 50 µg/mL
- IC80 [30]: > 50 µg/mL
- IC50 [31]: > 50 µg/mL
- IC80 [31]: > 50 µg/mL
- IC50 [32]: > 50 µg/mL
- IC80 [32]: > 50 µg/mL
- IC50 [33]: 0.004 µg/mL
- IC80 [33]: 0.017 µg/mL
- IC50 [34]: 26.3 µg/mL
- IC80 [34]: > 50 µg/mL
- IC50 [35]: > 50 µg/mL
- IC80 [35]: > 50 µg/mL
- IC50 [36]: 0.153 µg/mL
- IC80 [36]: 4.8 µg/mL
- IC50 [37]: > 50 µg/mL
- IC80 [37]: > 50 µg/mL
- IC50 [38]: < 0.001 µg/mL
- IC80 [38]: 0.003 µg/mL
- IC50 [39]: 3.69 µg/mL
- IC50 [40]: 0.007 µg/mL
- IC80 [40]: 0.035 µg/mL
- IC50 [41]: 0.019 µg/mL
- IC80 [41]: 0.071 µg/mL
- IC50 [42]: 0.038 µg/mL
- IC80 [42]: 0.177 µg/mL

Substance: VRC01 (antibody)
- IC50 (Titer in TZM.bl cells) [43]: 0.06 µg/mL
- IC80 (Titer in TZM.bl cells) [43]: 0.15 µg/mL
- IC50 (Titer in TZM.bl cells) [44]: 0.41 µg/mL
- IC80 (Titer in TZM.bl cells) [44]: 1.7 µg/mL
